Reference: patent US20220185894A1 (F STAR THERAPEUTICS, published 2022)
Several values for one entry are separate records, joined by “and”; a condition that tells them apart may be missing. Equal values may be shown once.

Key:
[1] = target: T1, human LAG-3 expressed on cells (human, UniProt P18627 23-525); assay: flow cytometry on HEK cells expressing human LAG-3
T1 construct: also called hLAG-3; DO11.10 hLAG-3
T1 sequence: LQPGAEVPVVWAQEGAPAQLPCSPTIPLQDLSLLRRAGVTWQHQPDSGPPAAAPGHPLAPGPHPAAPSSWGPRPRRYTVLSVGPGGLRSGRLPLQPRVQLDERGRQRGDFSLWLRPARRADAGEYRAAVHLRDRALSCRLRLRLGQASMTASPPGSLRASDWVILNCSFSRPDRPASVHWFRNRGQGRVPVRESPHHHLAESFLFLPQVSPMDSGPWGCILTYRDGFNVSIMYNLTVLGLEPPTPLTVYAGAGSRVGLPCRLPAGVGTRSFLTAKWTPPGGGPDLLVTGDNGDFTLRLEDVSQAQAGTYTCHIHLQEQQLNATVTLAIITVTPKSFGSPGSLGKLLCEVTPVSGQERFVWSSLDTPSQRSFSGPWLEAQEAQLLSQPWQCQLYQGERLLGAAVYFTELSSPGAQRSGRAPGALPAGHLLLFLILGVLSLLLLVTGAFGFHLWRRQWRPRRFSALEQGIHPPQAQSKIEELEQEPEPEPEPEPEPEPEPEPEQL
Experimental: (§1) The affinity of the mAb² (all containing the LALA mutation) for cell expressed human or cynomolgus LAG-3 was determined using flow cytometry. HEK cells expressing human or cynomolgus LAG-3 grown in DMEM (Life Technologies, 61965-026) containing 10% FBS (Life Technologies, 10270-1-6), 100 μg/ml Hygromycin B (Melford Laboratories Ltd, Z2475), 15 μg/ml Blasticidin (Melford Laboratories Ltd, B1105) and 1 μg/ml Doxycyclin (Sigma, D9891) were detached from tissue culture flasks using cell dissociation buffer (Life Technologies, 13151-014) and seeded in V-bottom 96-well plates (Costar, 3897) at 2×10⁵ cells/well. The plates were centrifuged at 1500 rpm for 3 min at 4° C. to pellet the cells. A dilution series of the mAb² (or control mAb) were incubated with the cells in a 100 μl volume for 1 h at 4° C. The plates were washed and secondary antibody (Anti-human Fc-488, Jackson ImmunoResearch, 109-546-098) was diluted 1:1000 in PBS and 100 μl was added to the cells for 30 min at 4° C. (plates were kept in the dark). The plates were washed and then cells were resuspended in 100 μl PBS containing 1 μg/ml DAPI (Biotium, 40043). The plates were read using Canto II flow cytometer (BD Bioscience). Dead cells were excluded and the fluorescence in the FITC channel (488 nm/530/30) was measured. The data was fit using log (agonist) vs response in GraphPad Prism Software. The plates were read on a BD FACSCanto II cytometer (BD Biosciences) and the data analysed using FlowJo.

[2] = target: T2, recombinant Fc-tagged human LAG-3 (R&D Systems, 2319-L3-050) (human, UniProt P18627 23-450); assay: SPR, BIAcore T200; mAb2 captured on Protein L, human LAG-3 Fc injected
T2 construct: Bought protein; also called LAG-3 Fc; human LAG-3-Fc; not shown: Fc tag of the bought fusion protein
T2 sequence: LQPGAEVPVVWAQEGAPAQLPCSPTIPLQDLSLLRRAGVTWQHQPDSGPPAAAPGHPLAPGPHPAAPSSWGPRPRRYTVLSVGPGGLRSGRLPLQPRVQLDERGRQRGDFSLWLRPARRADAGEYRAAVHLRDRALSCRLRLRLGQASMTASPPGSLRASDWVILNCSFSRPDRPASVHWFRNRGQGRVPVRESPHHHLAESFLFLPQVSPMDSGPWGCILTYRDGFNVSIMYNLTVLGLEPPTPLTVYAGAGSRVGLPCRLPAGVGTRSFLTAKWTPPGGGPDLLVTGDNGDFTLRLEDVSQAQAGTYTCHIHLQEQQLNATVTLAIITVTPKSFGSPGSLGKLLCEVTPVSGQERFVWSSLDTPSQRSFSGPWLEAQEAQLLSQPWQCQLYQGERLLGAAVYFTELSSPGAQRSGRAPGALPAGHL

[3] = target: T3, cynomolgus PD-L1 expressed on cells (cynomolgus monkey, UniProt Q9NZQ7 19-290 (human entry)); assay: flow cytometry on HEK cells expressing cynomolgus PD-L1
T3 construct: also called cPD-L1; cyno PD-L1
T3 sequence (Q9NZQ7 other isoform, or with tags, fused parts or gaps limits assumed): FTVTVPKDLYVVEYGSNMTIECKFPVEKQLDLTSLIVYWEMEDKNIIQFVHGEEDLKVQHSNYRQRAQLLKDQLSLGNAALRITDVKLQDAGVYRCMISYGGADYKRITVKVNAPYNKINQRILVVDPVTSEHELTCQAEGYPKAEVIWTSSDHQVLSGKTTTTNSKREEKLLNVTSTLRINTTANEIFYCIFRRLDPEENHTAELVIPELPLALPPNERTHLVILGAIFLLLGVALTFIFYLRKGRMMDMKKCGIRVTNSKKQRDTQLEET
Experimental: as §1, with “HEK cells” for “The affinity of the mAb² (all containing the LALA mutation) for cell expressed human or cynomolgus LAG-3 was determined using flow cytometry. HEK cells”, “or cynomolgus PD-L1 grown in” for “or cynomolgus LAG-3 grown in”, “control mAb) was incubated with” for “control mAb) were incubated with”, “were washed then cells” for “were washed and then cells”

B1: anti-human LAG-3/PD-L1 mAb2 FS18-7-9/84G09 with LALA mutation (bispecific antibody, human IgG1, kappa, L234A L235A)
heavy: EVQLVESGGGLVQPGRSLRLSCAASGFTFDDYAMHWVRQTPGKGLEWVSGISWKSNIIGYADSVKGRFTISRDNAKNSLYLQMNSLRAEDTALYYCARDITGSGSYGWFDPWGQGTLVTVSSASTKGPSVFPLAPSSKSTSGGTAALGCLVKDYFPEPVTVSWNSGALTSGVHTFPAVLQSSGLYSLSSVVTVPSSSLGTQTYICNVNHKPSNTKVDKKVEPKSCDKTHTCPPCPAPEAAGGPSVFLFPPKPKDTLMISRTPEVTCVVVDVSHEDPEVKFNWYVDGVEVHNAKTKPREEQYNSTYRVVSVLTVLHQDWLNGKEYKCKVSNKALPAPIEKTISKAKGQPREPQVYTLPPSWDEPWGEDVSLTCLVKGFYPSDIAVEWESNGQPENNYKTTPPVLDSDGSFFLYSKLTVPYDRWVWPDEFSCSVMHEALHNHYTQKSLSLSPG
light: DIQMTQSPSSLSASVGDRVTITCRASQSISSYLNWYQQKPGKAPKPLIYVASSLQSGVPSSFSGSGSGTDFTLTISSLQPEDFATYYCQQSYSNPITFGQGTRLEIKRTVAAPSVFIFPPSDEQLKSGTASVVCLLNNFYPREAKVQWKVDNALQSGNSQESVTEQDSKDSTYSLSSTLTLSKADYEKHKVYACEVTHQGLSSPVTKSFNRGEC
notes: also called FS18-7-09/84G09LALA; FS18-7-9/84G09 LALA
[1]
  EC50: 3.18 nM
[2]
  Kd: 0.056 nM
  koff: 0.00035 s⁻¹
  kon: 6.3e+06 M⁻¹ s⁻¹
[3]
  EC50: 1.67 nM and 1.81 nM
